Publication doi:10.1101/2025.05.16.654433

B1: APE-1::GFP::3xflag (endogenous APE-1 tagged with 3xflag and GFP) [C. elegans] / HaloTag::GSP-2 (endogenously HaloTagged GSP-2 labeled with JF646) [modified: far-red dye JF646 on the HaloTag; far-red dye JF646 on the HaloTag] … (parent)
chain 1: MVTTSSGGGIGYPANNGVTQVSLIHSSDSVRTVSTAPIYRPTSSMASTMAHKSSTAPFISANQRMSKPPVRVVAQPPPPHPQALSQQYHQQNPMMMYSAPNTRPHVIPTMQVQPTMAAQIKRNNPVNAQFQNPSEMIADYGVKPQSVEMVQRVRAVRRQVADEETELRRLRELEHETAQLQNKNYGRERELNVQGSMLKEAQLELRNASMRAQSLNKHLEEMYRRRQTAAAAALVEQRKMQQHQILLARAANQVSTQEVIRPRASVEPFQVNNTQQQQPSPQMMKSEEFSEKRDLNGQTGSYDAIDGSGDHQKIPTEPSYLAPCKENQQKYSELSKMASTDPHSNHSSPSTSSQKAPTLITFSPPSFEQKINSSTMTRDSPFVERPTSFGDSLDESRLRSGKTDLVSLRSDSLKATKRRSWAASEGTSMSEAEMIHRLLDEQRRGRSHFIPQLPTSQEEPSAITSETYAEEVVNSESKQVATSSDSTNNLELPTEQMVLGSDTTTEEDASSCSTRSDDGQNLEMEVAIERRTVKGILRRPNEKMNKGRIEFDPLALLLDAALEGELDLVRSSASKLTDVSQANDEGITALHNAICAGHYEIVRFLIENDADVNAQDSDGWTPLHCAASCNNLPMVRQLVEGGGCVLASTLSDMETPVEKCEEDEDGYDGCLKYLSAAHNSTGSINTGKVYAAYGYEAAFEDELSFDAGDELTVIEKDKVDKNWWTCEKNNGEKGQVPRTYLALYPSLKYRKKLNFVMFDLPLESNNNVE
chain 2: MDVEKLNLDNIISRLLEVRGSKPGKNVQLTESEIKGLCQKSREIFLSQPILLELEAPLKICGDVHGQYYDLLRLFEYGGFPPESNYLFLGDYVDRGKQSLETICLLLAYKIKYPENFFLLRGNHECASINRIYGFYDECKRRYNIKLWKTFTDCFNCLPVAAIIDEKIFCCHGGLSPDLQSMEQIRRIMRPTDVPDQGLLCDLLWSDPDKDVTGWGENDRGVSFTFGPEVVAKFLHKHDLDLICRAHQVVEDGYEFFAKRQLVTLFSAPNYCGEFDNAGSMMTVDETLMCSFQILKPADKKKYPYGAGGVGSNRPVTPPRNAPAAQPKKGAKK

Variants of: B1
Assay: single molecule photobleaching analysis (TIRF microscopy) on anti-flag functionalized coverslips
Conditions: with HaloTag::GSP-2 (endogenously HaloTagged GSP-2 labeled with JF646) [modified: far-red dye JF646 on the HaloTag, whole worm lysates, HaloTag::GSP-2 labeled with JF646, p = 0.008 vs APE-1, read off a plot

Variant	screen value [%]
chain 1 N583K	34

Same assay, conditions: with HaloTag::GSP-2 (endogenously HaloTagged GSP-2 labeled with JF646) [modified: far-red dye JF646 on the HaloTag, whole worm lysates, HaloTag::GSP-2 labeled with JF646, p=0.531 vs APE-1, read off a plot

Variant	screen value [%]
chain 1 H591Y	38
